Experimental findings from FireProtDB (doi:10.1016/j.str.2006.07.007) are described below.

The labels stand for the following.
B1: Azurin, P00282 (parent)
chain: MLRKLAAVSLLSLLSAPLLAAECSVDIQGNDQMQFNTNAITVDKSCKQFTVNLSHPGNLPKNVMGHNWVLSTAADMQGVVTDGMASGLDKDYLKPDDSRVIAHTKLIGSGEKDSVTFDVSKLKEGEQYMFFCTFPGHSALMKGTLTLK

The variants in the data set derive from B1. The conditions noted are these: Pseudomonas aeruginosa (strain ATCC 15692 / DSM 22644 / CIP 104116 / JCM 14847 / LMG 12228 / 1C / PRS 101 / PAO1); pH 7; 25 °C; GdnHCl; Fluorescence; Phosphate 100 mM; reversible: Yes; structure 5AZU; whole UniProt chain shown.

For the variant V25A, the “ddG of mutation (higher = less stable)” value was 0 kcal/mol and the unfolding free energy came to 5.98 kcal/mol.

Regarding A102G, the “ddG of mutation (higher = less stable)” value came to 3.11 kcal/mol and the unfolding free energy was found to be 2.87 kcal/mol.

Consider L145A, for which the “ddG of mutation (higher = less stable)” value stood at 0.72 kcal/mol and the unfolding free energy amounted to 5.26 kcal/mol.

Turning to I27A, the “ddG of mutation (higher = less stable)” value amounted to 3.11 kcal/mol and the unfolding free energy was found to be 2.87 kcal/mol.

V80G: the “ddG of mutation (higher = less stable)” value was found to be 3.11 kcal/mol and the unfolding free energy is 2.87 kcal/mol.
